Where no end group is shown, it is not given here. The star is where a group is joined. Biotin = O=C1N[C@H]2[C@H](CS[C@H]2CCCCC(=O)*)N1
How the values were obtained:
[1] = target: T1, BSA (negative control coating) (bovine, UniProt P02769 25-607); assay: ELISA; Ab 0.125 ug/mL; repI
T1 construct: also called Negative control BSA
Description: In brief, plates with each non-conjugated peptide (50 μg/mL) or BSA-conjugated peptide (5 μg/mL) were coated in 0.58M carbonate-bicarbonate buffer pH9.5, 100 μL/well, at 4° C. […] After washing, wells were incubated with the 3, 3′,5,5′-Tetramethylbenzidine (TMB) HRP substrate and reactions were stopped with 2M HCl and OD450 was recorded.

[2] = target: T2, naked peptide 1a MTPTDFTSPIPNMADDYGSESTSS (human); assay: ELISA naked 24-mer; repI
T2 construct: also called region 1-24
T2 peptide: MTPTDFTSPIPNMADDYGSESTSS

[3] = target: T3, naked peptide 1b MEDYVNFNFTDFYCEKNNVRQFAS (human); assay: ELISA naked 24-mer; repI
T3 construct: also called region amino acids 25 to 48
T3 peptide: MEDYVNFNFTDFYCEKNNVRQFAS

naked peptide MTPTDFTSPI = target: T4, naked peptide MTPTDFTSPI (human); assay: ELISA naked peptide; scFv 1 ug/mL; repI
T4 peptide: MTPTDFTSPI
Description: (§1) The peptides were synthesized naked or with a N-terminal Biotin modification with a purity of >98%. All four scFvs were verified by ELISA that can be detected with anti-His antibodies. ELISA was performed for scFv-peptide binding validation. Briefly, naked peptides were coated (50 μg/mL) in 0.58M carbonate-bicarbonate buffer pH9.5, 100 μL/well, 4° C. O/N. Then after blocking (3% BSA-PBS, 300 μL/well 37° C. 1.5 h) and washing (PBS+Tween-20 0.05% v/v (0.05% PBST), wells were incubated with each purified scFv antibody at concentration of 1 μg/mL in PBS at 37° C. 1 h. After washing (0.05% PBST), wells were incubated with secondary antibodies (goat anti-His IgG-HRP) in PBS, 37° C., 30 min. After washing, and incubation with TMB substrate, reactions were stopped with 2M HCl and reading was quantified at OD450.
(§2) Then a library of overlapping peptides were designed and constructed separately to produce 16 different peptides, covering full antigen sequence of total 48 aa. Peptide size was 10aa, with 7aa overlapping and ELISA screening of scFv against each peptide was performed in duplicate. Screening was performed using naked peptides in a standard plate or biotinylated peptides using avidin-plates.

naked peptide TDFTSPIPNM = target: T5, naked peptide TDFTSPIPNM (human); assay: ELISA naked peptide; scFv 1 ug/mL; repI
T5 peptide: TDFTSPIPNM
Description: as §1, §2

naked peptide TSPIPNMADD = target: T6, naked peptide TSPIPNMADD (human); assay: ELISA naked peptide; scFv 1 ug/mL; repI
T6 peptide: TSPIPNMADD
Description: as §1, §2

naked peptide IPNMADDYGS = target: T7, naked peptide IPNMADDYGS (human); assay: ELISA naked peptide; scFv 1 ug/mL; repI
T7 peptide: IPNMADDYGS
Description: as §1, §2

naked peptide MADDYGSEST = target: T8, naked peptide MADDYGSEST (human); assay: ELISA naked peptide; scFv 1 ug/mL; repI
T8 peptide: MADDYGSEST
Description: as §1, §2

naked peptide DYGSESTSSM = target: T9, naked peptide DYGSESTSSM (human); assay: ELISA naked peptide; scFv 1 ug/mL; repI
T9 peptide: DYGSESTSSM
Description: as §1, §2

naked peptide SESTSSMEDY = target: T10, naked peptide SESTSSMEDY (human); assay: ELISA naked peptide; scFv 1 ug/mL; repI
T10 peptide: SESTSSMEDY
Description: as §1, §2

naked peptide TSSMEDYVNF = target: T11, naked peptide TSSMEDYVNF (human); assay: ELISA naked peptide; scFv 1 ug/mL; repI
T11 peptide: TSSMEDYVNF
Description: as §1, §2

naked peptide SSMEDYVNFN = target: T12, naked peptide SSMEDYVNFN (human); assay: ELISA naked peptide; scFv 1 ug/mL; repI
T12 peptide: SSMEDYVNFN
Description: as §1, §2

naked peptide SMEDYVNFNF = target: T13, naked peptide SMEDYVNFNF (human); assay: ELISA naked peptide; scFv 1 ug/mL; repI
T13 peptide: SMEDYVNFNF
Description: as §1, §2

naked peptide MEDYVNFNFT = target: T14, naked peptide MEDYVNFNFT (human); assay: ELISA naked peptide; scFv 1 ug/mL; repI
T14 peptide: MEDYVNFNFT
Description: as §1, §2

naked peptide YVNFNFTDFY = target: T15, naked peptide YVNFNFTDFY (human); assay: ELISA naked peptide; scFv 1 ug/mL; repI
T15 peptide: YVNFNFTDFY
Description: as §1, §2

naked peptide FNFTDFYCEK = target: T16, naked peptide FNFTDFYCEK (human); assay: ELISA naked peptide; scFv 1 ug/mL; repI
T16 peptide: FNFTDFYCEK
Description: as §1, §2

naked peptide TDFYCEKNNV = target: T17, naked peptide TDFYCEKNNV (human); assay: ELISA naked peptide; scFv 1 ug/mL; repI
T17 peptide: TDFYCEKNNV
Description: as §1, §2

naked peptide KNNVRQFAS = target: T18, naked peptide KNNVRQFAS (human); assay: ELISA naked peptide; scFv 1 ug/mL; repI
T18 peptide: KNNVRQFAS
Description: as §1, §2

[4] = target: T19, biotin-peptide TSSMEDYVNF (human); assay: ELISA biotin-peptide; scFv 0.3125 ug/mL; repII
T19 peptide: Biotin-TSSMEDYVNF
Description: as §1
(§3) ELISA with biotin-conjugated peptides (5 μg/mL) was performed very similar to described above with minor modifications.
(§4) A full curve ELISA was performed for each positive scFv/biotin-peptide pair in order to confirm previous results. Tables 15-17 show ELISA results of the dose-dependent full curve for each positive peptide with scFv “CCR9_HUM”, “Comp-2” and “Comp-3”, respectively.

[5] = target: T20, biotin-peptide SSMEDYVNFN (human); assay: ELISA biotin-peptide; scFv 0.3125 ug/mL; repII
T20 peptide: Biotin-SSMEDYVNFN
Description: as §1, §3, §4

[6] = target: T21, biotin-peptide SMEDYVNFNF (human); assay: ELISA biotin-peptide; scFv 0.3125 ug/mL; repII
T21 peptide: Biotin-SMEDYVNFNF
Description: as §1, §3, §4

[7] = target: T22, biotin-peptide MEDYVNFNFT (human); assay: ELISA biotin-peptide; scFv 0.3125 ug/mL; repII
T22 peptide: Biotin-MEDYVNFNFT
Description: as §1, §3, §4

[8] = target: T19, biotin-peptide TSSMEDYVNF; assay: ELISA biotin-peptide; scFv 0.15625 ug/mL; repII
Description: as §1, §3, §4

[9] = target: T20, biotin-peptide SSMEDYVNFN; assay: ELISA biotin-peptide; scFv 0.15625 ug/mL; repII
Description: as §1, §3, §4

[10] = target: T21, biotin-peptide SMEDYVNFNF; assay: ELISA biotin-peptide; scFv 0.15625 ug/mL; repII
Description: as §1, §3, §4

[11] = target: T22, biotin-peptide MEDYVNFNFT; assay: ELISA biotin-peptide; scFv 0.15625 ug/mL; repII
Description: as §1, §3, §4

T1 sequence (P02769 25-607 limits assumed): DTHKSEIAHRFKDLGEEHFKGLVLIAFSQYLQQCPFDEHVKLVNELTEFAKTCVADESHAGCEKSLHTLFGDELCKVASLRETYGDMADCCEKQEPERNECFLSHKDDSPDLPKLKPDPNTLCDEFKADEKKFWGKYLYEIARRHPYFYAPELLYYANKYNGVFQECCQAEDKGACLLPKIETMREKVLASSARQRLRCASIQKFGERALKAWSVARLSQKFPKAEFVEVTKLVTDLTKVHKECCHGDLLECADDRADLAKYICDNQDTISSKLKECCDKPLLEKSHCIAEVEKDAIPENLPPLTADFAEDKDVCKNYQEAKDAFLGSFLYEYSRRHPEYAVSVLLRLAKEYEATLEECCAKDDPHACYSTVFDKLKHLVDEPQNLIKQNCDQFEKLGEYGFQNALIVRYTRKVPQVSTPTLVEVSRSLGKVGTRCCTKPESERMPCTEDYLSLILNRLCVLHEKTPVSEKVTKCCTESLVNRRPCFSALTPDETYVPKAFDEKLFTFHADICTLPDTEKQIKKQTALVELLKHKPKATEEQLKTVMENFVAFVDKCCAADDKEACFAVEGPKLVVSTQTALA

Binder | OD450 [2] [OD] | OD450 [3] [OD] | OD450 (naked peptide MTPTDFTSPI) [OD] | OD450 (naked peptide TDFTSPIPNM) [OD] | OD450 (naked peptide TSPIPNMADD) [OD] | OD450 (naked peptide IPNMADDYGS) [OD] | OD450 (naked peptide MADDYGSEST) [OD] | OD450 (naked peptide DYGSESTSSM) [OD] | OD450 (naked peptide SESTSSMEDY) [OD] | OD450 (naked peptide TSSMEDYVNF) [OD] | OD450 (naked peptide SSMEDYVNFN) [OD] | OD450 (naked peptide SMEDYVNFNF) [OD] | OD450 (naked peptide MEDYVNFNFT) [OD] | OD450 (naked peptide YVNFNFTDFY) [OD] | OD450 (naked peptide FNFTDFYCEK) [OD] | OD450 (naked peptide TDFYCEKNNV) [OD] | OD450 (naked peptide KNNVRQFAS) [OD] | also measured
anti-CCR9 antibody clone 115 (murine, from hybridoma #115) (antibody, V domains shown, Mouse IgG1) VH: QVQLKQSGPELVKPGTSVRVSCTASGYSFTDYIIYWVKQSHGRSLEWIGYIDPNNYNTRYSQKFKGKATLTVDKSSTSAFMHLNSLTSDDSAVYYCARDVYWGQGTTLTVSS VL: DVVMTQTPLSLTVSLGDQASISCRSSQSLVHSNGKTYLQWYLQKPGQSPKLLIYKVSNRFSGVPDRFSGSGSGTDFTLKISRVEAEDLGVYFCAQSTHVWTFGGGTKLEIKR |  |  |  |  |  |  |  |  |  |  |  |  |  |  |  |  |  | OD450 [1]: 0.01 OD
CCR9_HUM2 scFv (humanized anti-CCR9 scFv, SEQ ID NO: 17 with C-terminal 6xHis tag) (scFv) scFv: QVQLVQSGAEVKKPGASVKVSCTASGYSFTDYIIYWVKQAHGQSLEWMGYIDPNNYNTRYSQKFQGKVTITVDKSSTSAYMELNSLTSDDTAVYYCARDVYWGQGTTVTVSSGGGGSGGGGSGGGGSGGGGSDVVMTQTPLSLSVTPGQPASISCRSSQSLVHSNGKTYLQWYLQKPGQSPKLLIYKVSNRFSGVPDRFSGSGSGTDFTLKISRVEAEDVGVYFCAQSTHVWTFGGGTKVEIKRAHHHHHH | 0.05 | 2.22 | 0.04 | 0.05 | 0.03 | 0.02 | 0.03 | 0.02 | 0.03 | 0.03 | 0.9 | 1.54 | 0.84 | 0.03 | 0.04 | 0.05 | 0.03 | OD450 [4]: 0.45 OD; OD450 [5]: 1.73 OD; OD450 [6]: 1.65 OD; OD450 [7]: 1.35 OD; OD450 [8]: 0.18 OD; OD450 [9]: 1.59 OD; OD450 [10]: 1.6 OD; OD450 [11]: 1.37 OD
Comparative antibody 3 (Comp-3) scFv, SR_92R (Somovilla-Crespo et al. 2018), His-tagged (scFv) scFv: EVKLEESGGGLVQPGGSMKLSCVASGFTFNKFWMNWVRQSPEKGLEWVAEIRLKSNNYATHYAESVKGRFTISRDDSKSSVYLQMNNLRAEDTGIYYCASDGWFAYWGQGTLVTVSAGGGGSGGGGSGGGGSGGGGSDVVMTQTPLSLPVSLGDQASISCRSSQSLVHSNGNTYLNWCLQRPGQSPKSLIYKVSNRFSGVPDRFSGSGSGTDFTLKISRVEAEDLGVYFCSQSTHFPRTFGGGTKLEIKRHHHHHH | 1.38 | 0.11 | 0.02 | 0.07 | 0.02 | 0.02 | 0.02 | 0.03 | 0.03 | 0.04 | 0.09 | 0.05 | 0.05 | 0.03 | 0.05 | 0.03 | 0.05 | 
Comparative antibody 2 (Comp-2) scFv, 243LO326 (VH SEQ ID NO: 51 and VL SEQ ID NO: 52 of WO 2022/195028 A2), His-tagged (scFv) scFv: QVQLVQSGAEVKKPGASVKVSCKASGYTFTSYWMHWVRQAPGQGLEWIGVIYPGNSDTRYNQKFKGRVTITRDTSASTAYMELSSLRSEDTAVYYCTRDYYSNYVYYYAMDYWGQGTTVTVSSGGGGSGGGGSGGGGSGGGGSDIVMTQTPLSLPVTPGEPASISCRSSQSLVHPNRNTYLHWYLQKPGQSPQLLIYKVSNRFSGVPDRFSGSGSGTDFTLKISRVEAEDVGVYYCSQSTHVPWTFGQGTKLEIKHHHHHH | 0.09 | 1.97 | 0.03 | 0.04 | 0.02 | 0.02 | 0.02 | 0.02 | 0.03 | 0.03 | 0.1 | 0.03 | 0.04 | 0.02 | 0.03 | 0.03 | 0.04 | 
Comparative antibody 1 (Comp-1) scFv, SEQ ID NO: 10 from WO2023/037125 A1, His-tagged (scFv) scFv: QVQLKESGPGLVQPSQTLSLTCTVSGFSVASYDMHWVRLPPGKGLEWMGIIWANGNTHYNSGLKSRLSISRDTSKSQVFLKMNSLQTEDTAIYFCTRGGFAYWGQGTLVTVSSGGGGSGGGGSGGGGSGGGGSDVVMTQTPVSLSVSLGGQVSISCRSSQSLVHNNGNTYLSWYLQKPGQSPQLLIYKVSNRFSGVSDRFSGSGSGTDFTLKISRVEPDDLGVYYCGQGTQYPTFGGGTKLELKHHHHHH | 0.08 | 0.09 | 0.05 | 0.03 | 0.05 | 0.01 | 0.02 | 0.02 | 0.03 | 0.03 | 0.07 | 0.02 | 0.05 | 0.05 | 0.02 | 0.03 | 0.02 | 
